The target in the test is human NGF (Homo sapiens, UniProt P01138). The test can be described thus: BIAcore screening assay of Fab library clones (koff). In kind it is binding. Conditions: for binding affinity compared with the 8L2-6D5 template: single CDR3 mutation. On the procedure:
Small scale expression in 96 wells plates was optimized for screening Fab libraries. Starting from E. coli transformed with a Fab library, colonies were picked to inoculate both a master plate (agar LB+Ampicillin (50 μg/ml)+2% Glucose) and a working plate (2 ml/well, 96 well/plate containing 1.5 mL of LB+Ampicillin (50 μg/ml)+2% Glucose). Both plates were grown at 30° C. for 8-12 hours. The master plate was stored at 4° C. and the cells from the working plate were pelleted at 5000 rpm and resuspended with 1 mL of LB+Ampicillin (50 μg/ml)+1 mM IPTG to induce expression of Fabs. Cells were harvested by centrifugation after 5 h expression time at 30° C., then resuspended in 500 μL of buffer HBS-EP ([…] buffer pH 7.4, 150 mM NaCl, 0.005% P20, 3 mM EDTA). Lysis of HBS-EP resuspended cells was attained by one cycle of freezing (−80° C.) then thawing at 37° C. Cell lysates were centrifuged at 5000 rpm for 30 min to separate cell debris from supernatants containing Fabs. The supernatants were then injected into the BIAcore plasmon resonance apparatus to obtain affinity information for each Fab. Clones expressing Fabs were rescued from the master plate to sequence the DNA and for large scale Fab production and detailed characterization as described below.
Affinities of anti-NGF Fabs and monoclonal antibodies were determined using the BIAcore300™ surface plasmon resonance (SPR) system (BIAcore, INC, Piscaway N.J.). CM5 chips were activated with N-ethyl-N′-(3-dimethylaminopropyl)-carbodimide hydrochloride (EDC) and N-hydroxysuccinimide (NHS) according to the supplier's instructions. Human NGF was diluted into 10 mM sodium acetate pH 4.0 and injected over the activated chip at a concentration of 0.005 mg/mL. Using variable flow time across the individual chip channels, two ranges of antigen density were achieved: 100-200 response units (RU) for detailed kinetic studies and 500-600 RU for screening assays. The chip was blocked with ethanolamine. […] HBS-EP buffer (0.01M HEPES, pH 7.4, 0.15 NaCl, 3 mM EDTA, 0.005% Surfactant […]) was used as running buffer for all the BIAcore assays.
A screening BIAcore assay was optimized to determine the affinity of Fab clones from libraries. Supernatants of small culture lysates were injected at 50 μl/min for 2 min. Dissociation times of 10 to 15 minutes were used for determination of a single exponential dissociation rate (koff) using BIAevaluation software. […] Clones showing improved (slower) koff values were expressed at large scale and full kinetic parameters, kon and koff, were determined on purified protein. The assay was capable of detecting differences in affinity that were approximately 2-fold or larger.
For affinity screening experiments, each library was further paired with the corresponding CDR-grafted light or heavy chain (for example, the H1/H2 library was paired with CDR-grafted light chain), the antibody was expressed, and affinity to human NGF of the individual clones was screened using the BIACORE surface plasmon resonance (SPR) system (BIAcore, Inc. Piscataway, N.J.) according to the manufacturer's instructions and as described above. koff, kon and KD were determined. Antibody clones were ranked based on koff rates, since generally most variation in affinity is seen in koff rates, and further because koff rates are independent of antibody concentration.
20-80 clones from each small library were screened using BIAcore analysis as described herein. Samples were simultaneously analyzed by BIAcore for binding affinity to NGF in one channel of the BIAcore chip and for presence of Fab by binding to a penta-histag antibody in another channel of the sensor chip, to detect the his tag at the C terminus of the heavy chain. Clones that expressed protein were classified as having the same affinity, worse affinity, better affinity or no binding, using koff to classify: The results of this analysis are shown in Table 5.
Background: Surface plasmon resonance follows binding to a sensor surface in real time, without labels.

[1] abbreviates: Table 3: heavy chain library clones paired with 6D5 light chain.
Where [2] appears, read: Table 3: light chain library clones paired with 8L2 heavy chain.
[3] abbreviates: Table 6: single CDR H3 or L3 mutation in 8L2-6D5 template.

Substitutions are numbered along the chain they refer to. Numbers in names are those of the source.

As usually defined, the koff is the first-order rate constant of dissociation. As usually defined, the Kd is the constant that tells how readily two partners part at equilibrium.

Sequence of human NGF (P01138 122-241): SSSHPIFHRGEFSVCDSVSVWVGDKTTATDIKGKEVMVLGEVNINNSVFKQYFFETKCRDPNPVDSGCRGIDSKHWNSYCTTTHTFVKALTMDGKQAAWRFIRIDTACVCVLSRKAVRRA

B1: 8L2-6D5: CDR-grafted antibody with V71K heavy chain framework substitution; template for affinity maturation (antibody, V domains shown)
VH: QVQLQESGPGLVKPSETLSLTCTVSGFSLIGYDINWIRQPPGKGLEWIGMIWGDGTTDYNSALKSRVTISKDTSKNQFSLKLSSVTAADTAVYYCARGGYYYGTSYYFDYWGQGTLVTVS
VL: DIQMTQSPSSLSASVGDRVTITCRASQDISNHLNWYQQKPGKAPKLLIYYISRFHSGVPSRFSGSGSGTDFTFTISSLQPEDIATYYCQQSKTLPYTFGQGTKLEIKRT
Turning to B1, the koff runs as follows: under setting [1], 0.001 s⁻¹; under setting [2], “**1e3 s-1”; under setting [3], 0.001 s⁻¹; (Table 8: CDR L3 H3 combination mutations, 8L2-6D5 template) 0.001 s⁻¹; (template used to create the library) 1×10^−3 s^−.

B2: Y101W: 8L2-6D5 template with CDR H3 mutation Y101W (SEQ ID NO:46) (antibody, V domains shown)
VH: B1 VH with Y101W
VL: B1 VL
Regarding B2, the “binding affinity compared with the 8L2-6D5 template” value was “significantly increased binding affinity”. Under setting [3], this molecule came in with a koff of 0.00056 s⁻¹.

B3: H225: heavy chain library clone, CDRH1 SEQ ID NO:34, CDRH2 SEQ ID NO:35 (antibody, V domains shown)
VH: B1 VH with I34V, N35T, M50G, A62S, L63V
VL: B1 VL
Under setting [1], B3 displayed a koff of 0.00038 s⁻¹.

B4: L129: light chain library clone, CDRL1 SEQ ID NO:18, CDRL2 SEQ ID NO:19 (antibody, V domains shown)
VH: B1 VH
VL: B1 VL with D28S, H32N, I51T
As for B4, the koff under setting [2] was found to be 0.00045 s⁻¹.

B5: H227: heavy chain library clone, CDRH1 SEQ ID NO:40, CDRH2 SEQ ID NO:41 (antibody, V domains shown)
VH: B1 VH with N35S, M50Q, A62S, L63V
VL: B1 VL
Take B5: the off-rate (koff) under setting [1] is 0.00054 s⁻¹.

B6: S105T: 8L2-6D5 template with CDR H3 mutation S105T (SEQ ID NO:48) (antibody, V domains shown)
VH: B1 VH with S105T
VL: B1 VL
B6: the “binding affinity compared with the 8L2-6D5 template” value was “significantly increased binding affinity”. Further, the koff under setting [3] came to 0.00064 s⁻¹.

B7: L97: light chain library clone, CDRL1 SEQ ID NO:22, CDRL2 SEQ ID NO:23 (antibody, V domains shown)
VH: B1 VH
VL: B1 VL with D28S, H32Q, I51V
Regarding B7, the koff under setting [2] was 0.00056 s⁻¹.

B8: L208: light chain library clone, CDRL1 SEQ ID NO:20, CDRL2 SEQ ID NO:21 (antibody, V domains shown)
VH: B1 VH
VL: B1 VL with D28Y, I51T
With B8, the koff under setting [2] was 0.00046 s⁻¹.

B9: Y100L: 8L2-6D5 template with CDR H3 mutation Y100L (antibody, V domains shown)
VH: B1 VH with Y100L
VL: B1 VL
B9 came in with a koff under setting [3] of 0.0012 s⁻¹.

B10: H17: heavy chain library clone, CDRH1 SEQ ID NO:42, CDRH2 SEQ ID NO:43 (antibody, V domains shown)
VH: B1 VH with I34A, N35S, M50G, A62S, L63V
VL: B1 VL
B10 showed a koff under setting [1] of 0.00061 s⁻¹. In addition, for the setting “Table 3: heavy chain library clones, KD calculated using kon 4e4 M^−1s^−1”, the Kd is 0.0152 µM.

B11: H19: heavy chain library clone, CDRH1 SEQ ID NO:30, CDRH2 SEQ ID NO:31 (antibody, V domains shown)
VH: B1 VH with I34L, M50I, L63V
VL: B1 VL
Molecule B11 yielded a koff under setting [1] of 0.00024 s⁻¹.

B12: L81: light chain library clone, CDRL1 SEQ ID NO:24, CDRL2 SEQ ID NO:25 (antibody, V domains shown)
VH: B1 VH
VL: B1 VL with S26F, D28A, H32Q, S56T
Regarding B12, under setting [2], the koff was found to be 0.00074 s⁻¹.

B13: G103A: 8L2-6D5 template with CDR H3 mutation G103A (SEQ ID NO:49) (antibody, V domains shown)
VH: B1 VH with G103A
VL: B1 VL
Take B13: the “binding affinity compared with the 8L2-6D5 template” value is recorded as “significantly increased binding affinity”. For the same molecule, the koff under setting [3] stood at 0.00016 s⁻¹.

B14: H109: heavy chain library clone, CDRH1 SEQ ID NO:28, CDRH2 SEQ ID NO:29 (antibody, V domains shown)
VH: B1 VH with I34S, M50I
VL: B1 VL
The molecule B14 returned a koff under setting [1] of 0.00016 s⁻¹.

B15: S91E: 8L2-6D5 template with CDR L3 mutation S91E (SEQ ID NO:50) (antibody, V domains shown)
VH: B1 VH
VL: B1 VL with S91E
B15: the “binding affinity compared with the 8L2-6D5 template” value was “significantly increased binding affinity”. This molecule also returned a koff under setting [3] of 0.00025 s⁻¹.

B16: H28: heavy chain library clone, CDRH1 SEQ ID NO:44, CDRH2 SEQ ID NO:45 (antibody, V domains shown)
VH: B1 VH with I34S, N35T, M50S
VL: B1 VL
B16 showed a koff under setting [1] of 0.00075 s⁻¹.

B17: S105A: 8L2-6D5 template with CDR H3 mutation S105A (SEQ ID NO:47) (antibody, V domains shown)
VH: B1 VH with S105A
VL: B1 VL
For the molecule B17, the “binding affinity compared with the 8L2-6D5 template” value is listed as “significantly increased binding affinity”. The same molecule had a koff under setting [3] of 0.00051 s⁻¹.

B18: H18: heavy chain library clone, CDRH1 SEQ ID NO:36, CDRH2 SEQ ID NO:37 (antibody, V domains shown)
VH: B1 VH with I34A, N35T, M50G, L63V
VL: B1 VL
With B18, the koff under setting [1] came to 0.00042 s⁻¹.

B19: H222: heavy chain library clone, CDRH1 SEQ ID NO:32, CDRH2 SEQ ID NO:33 (antibody, V domains shown)
VH: B1 VH with I34V, N35T, M50G, L63V
VL: B1 VL
For the molecule B19, the koff under setting [1] came out at 0.00038 s⁻¹.

B20: Y100R: 8L2-6D5 template with CDR H3 mutation Y100R (antibody, V domains shown)
VH: B1 VH with Y100R
VL: B1 VL
Under setting [3], B20 showed a koff of 0.0011 s⁻¹.

Values taken from patent US20080182978A1, “ANTI-NGF ANTIBODIES AND METHODS USING SAME” (RINAT NEUROSCIENCE CORP, priority 2002, published 2008).
